PMC3303851, “Structural Basis of Ets1 Cooperative Binding to Widely Separated Sites on Promoter DNA” (PLoS ONE, 2012)

Target: the molecule itself
Assay: crystal structure; Ets1 280-441 mixed 1:1.05 with TCRα promoter dsDNA; (Ets1)2•2DNA crystals grown at 295 K, space group P2_(1), refined at 3.1 Å; asymmetric unit holds an Ets1 homodimer and two pieces of dsDNA

B1: Ets1 (residues 280–441) (domain or fragment, UniProt P14921 280-441, looked up)
chain: VPSYDSFDSEDYPAALPNHKPKGTFKDYVRDRADLNKDKPVIPAAALAGYTGSGPIQLWQFLLELLTDKSCQSFISWTGDGWEFKLSDPDEVARRWGKRKNKPKMNYEKLSRGLRYYYDKNIIHKTAGKRYVYRFVCDLQSLLGYTPEELHAMLDVKPDADE
notes: also called Ets1 dimer; source: cloned, expressed and purified according to reported protocols [36]
  stoichiometry N: 2
